{
  "source": "paper PMC9453702",
  "about": "“Structure-function analysis of enterovirus protease 2A in complex with its essential host factor SETD3” (Nature Communications, 2022)",
  "molecules": {"B1": {"name": "human SETD3, wild type (recombinant, tag cleaved) (enzyme)", "chain": "MGKKSRVKTQKSGTGATATVSPKEILNLTSELLQKCSSPAPGPGKEWEEYVQIRTLVEKIRKKQKGLSVTFDGKREDYFPDLMKWASENGASVEGFEMVNFKEEGFGLRATRDIKAEELFLWVPRKLLMTVESAKNSVLGPLYSQDRILQAMGNIALAFHLLCERASPNSFWQPYIQTLPSEYDTPLYFEEDEVRYLQSTQAIHDVFSQYKNTARQYAYFYKVIQTHPHANKLPLKDSFTYEDYRWAVSSVMTRQNQIPTEDGSRVTLALIPLWDMCNHTNGLITTGYNLEDDRCECVALQDFRAGEQIYIFYGTRSNAEFVIHSGFFFDNNSHDRVKIKLGVSKSDRLYAMKAEVLARAGIPTSSVFALHFTEPPISAQLLAFLRVFCMTEEELKEHLLGDSAIDRIFTLGNSEFPVSWDNEVKLWTFLEDRASLLLKTYKTTIEEDKSVLKNHDLSVRAKMAIKLRLGEKEILEKAVKSAAVNREYYRQQMEEKAPLPKYEESNLGLLESSVGDSRLPLVLRNLEEEAGVQDALNIREAISKAKATENGLVNGENSIPNGTRSENESLNQESKRAVEDAKGSSSDSTAGVKE"}, "B2": {"name": "human SETD3 G361R (recombinant, tag cleaved) (enzyme)", "chain": "B1 chain with G361R"}, "B3": {"name": "human SETD3 Y288P (recombinant, tag cleaved) (enzyme)", "chain": "B1 chain with Y288P"}, "B4": {"name": "human SETD3 G361R + F409A (recombinant, tag cleaved) (enzyme)", "chain": "B1 chain with G361R, F409A"}, "B5": {"name": "human SETD3 Q257A + V266D (recombinant, tag cleaved) (enzyme)", "chain": "B1 chain with Q257A, V266D"}, "B6": {"name": "synthetic actin peptide, residues 66-81, H73L (peptide)", "peptide": "TLKYPIELGIVTNWDD", "notes": "also called actin peptide 66-81 with His73 replaced by leucine; source: synthetic peptide"}},
  "key": {"[1]": {"molecular_target": "2xStrep-tagged catalytically dead CV-B3 2A, expressed in human cells", "assay": "FLAG affinity purification with label-free quantitative MS", "settings": "co-transfected CV-B3 2A; four biologically independent experiments; parent: est. 5.5e7; read off a plot"}, "[2]": {"molecular_target": "actin (Homo sapiens) (UniProt P60709)", "settings": "cited from earlier work"}, "[3]": {"molecular_target": "coxsackievirus B3 protease 2A with C-terminal His6-tag (for biolayer interferometry)", "assay": "biolayer interferometry", "settings": "parent: 0.0051 s-1"}, "[4]": {"molecular_target": "coxsackievirus B3 protease 2A with C-terminal His6-tag (for biolayer interferometry) (coxsackievirus B3 (Nancy strain))", "assay": "BLI; Octet RED384; His-tagged 2A loaded on Ni-NTA biosensors at 20 µg/ml, SETD3 variants in solution at several concentrations; 20 mM Tris/HCl pH 8.0, 150 mM NaCl, 5% glycerol, 1 mM DTT; global fit with Rmax unlinked"}, "[5]": {"molecular_target": "coxsackievirus B3 (Nancy strain) protease 2A, C107A (recombinant, tag cleaved) (coxsackievirus B3 (Nancy strain))"}, "[6]": {"molecular_target": "T1, human SETD3, wild type (recombinant, tag cleaved) (human, UniProt Q86TU7 1-594)", "T1 construct": "SETD3, actin histidine methyltransferase, human; codon-optimised gene in vector 2G-T; also called WT SETD3; SETD3 WT; source: E. coli BL21*(DE3), purified (Glutathione Sepharose 4B, TEV digest, His-Trap FF flow-through; Superdex 200 Increase for BLI)", "T1 sequence": "B1 chain", "assay": "BLI; competition: His-tagged 2A on Ni-NTA biosensors, 3-fold dilution series of actin peptide (40 nM to 10 µM) with SETD3 constant at 310 nM; 20 mM Tris/HCl pH 8.0, 150 mM NaCl, 5% glycerol, 1 mM DTT; maximum binding against peptide concentration", "settings": "both partners purified"}},
  "note": "Residue numbers refer to the chain shown, from its start. In names and notes the source's numbering stands.",
  "data": [
    {"molecule": "FLAG-tagged SETD3, wild type, expressed in human cells (from UniProt Q86TU7) Q257A; V266D", "values": [
      {"measurement": "response", "setting": "[1]", "value": "1.7e+06"}
    ]},
    {"molecule": "FLAG-tagged SETD3, wild type, expressed in human cells (from UniProt Q86TU7) Q257A; V266D; Y288P", "values": [
      {"measurement": "response", "setting": "[1]", "value": 900000}
    ]},
    {"molecule": "FLAG-tagged SETD3, wild type, expressed in human cells (from UniProt Q86TU7) Q257A; V266D; Y288P; G361R", "values": [
      {"measurement": "response", "setting": "[1]", "value": 450000}
    ]},
    {"molecule": "SETD3 (from UniProt Q86TU7)", "values": [
      {"measurement": "Kd", "setting": "[2]", "value": 170, "unit": "nM"}
    ]},
    {"molecule": "human SETD3, wild type (recombinant, tag cleaved) (from UniProt Q86TU7) G361R", "values": [
      {"measurement": "koff", "setting": "[3]", "value": 0.0116, "unit": "s⁻¹"}
    ]},
    {"molecule": "human SETD3, wild type (recombinant, tag cleaved) (from UniProt Q86TU7) G361R; F409A", "values": [
      {"measurement": "koff", "setting": "[3]", "value": 0.0131, "unit": "s⁻¹"}
    ]},
    {"molecule": "human SETD3, wild type (recombinant, tag cleaved) (from UniProt Q86TU7) Q257A; V266D", "values": [
      {"measurement": "koff", "setting": "[3]", "value": 0.45, "unit": "s⁻¹"}
    ]},
    {"molecule": "human SETD3, wild type (recombinant, tag cleaved) (from UniProt Q86TU7) Y288P", "values": [
      {"measurement": "koff", "setting": "[3]", "value": 0.32, "unit": "s⁻¹"}
    ]},
    {"molecule": "B1", "values": [
      {"measurement": "Kd", "setting": "[4]", "value": 47, "unit": "nM"},
      {"measurement": "2A protease activity towards a FRET peptide of the VP1-2A cis-cleavage site; catalytically active WT 2A alone against its complex with WT SETD3", "setting": "[5]", "value": 1.5, "unit": "fold"},
      {"measurement": "kcat/Km of catalytically active WT 2A in complex with WT SETD3 towards a FRET peptide of the VP1-2A cis-cleavage site (1.5 mM^-1 min^-1 for 2A alone)", "setting": "[5]", "value": 2.28, "unit": "mM⁻¹ min⁻¹"}
    ]},
    {"molecule": "B2", "values": [
      {"measurement": "Kd", "setting": "[4]", "value": 110, "unit": "nM"}
    ]},
    {"molecule": "B3", "values": [
      {"measurement": "Kd", "setting": "[4]", "value": 2500, "unit": "nM"}
    ]},
    {"molecule": "B4", "values": [
      {"measurement": "Kd", "setting": "[4]", "value": 132, "unit": "nM"}
    ]},
    {"molecule": "B5", "values": [
      {"measurement": "Kd", "setting": "[4]", "value": 10000, "unit": "nM"}
    ]},
    {"molecule": "B6", "values": [
      {"measurement": "IC50", "setting": "[6]", "value": "1500 to 3400", "unit": "nM"}
    ]}
  ]
}
